We go through 9 molecules from PMC5912465 (2018).

B2: CCL14 (ligand)
chain: TKTESSSRGPYHPSECCFTYTTYKIPRQRIMDYYETNSQCSKPGIVFITKRGHSVCTNPSDKWVQDYIKDMKEN
B6: CCL3 (ligand)
chain: SLAADTPTACCFSYTSRQIPQNFIADYFETSSQCSKPGVIFLTKRSRQVCADPSEEWVQKYVSDLELSA
B7: CCL18 (ligand)
chain: AQVGTNKELCCLVYTSWQIPQKFIVDYSETSPQCPKPGVILLTKRGRQICADPNKKWVQKYISDLKLNA
B8: CCL8 (human chemokine panel) (ligand)
chain: QPDSVSIPITCCFNVINRKIPIQRLESYTRITNIQCPKEAVIFKTKRGKEVCADPKERWVRDSMKHLDQIFQNLKP
B9: CCL3L1 (ligand)
chain: APLAADTPTACCFSYTSRQIPQNFIADYFETSSQCSKPSVIFLTKRGRQVCADPSEEWVQKYVSDLELSA

The target in one assay is CCL11 (human, UniProt P51671 24-97). The assay can be described thus: BLI.
Sequence of CCL11 (P51671 24-97): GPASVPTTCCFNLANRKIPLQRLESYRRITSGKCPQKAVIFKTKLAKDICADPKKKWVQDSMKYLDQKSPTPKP
The target in the next assay is T1, CCL16 (human, UniProt O15467 24-120).
T1 chain: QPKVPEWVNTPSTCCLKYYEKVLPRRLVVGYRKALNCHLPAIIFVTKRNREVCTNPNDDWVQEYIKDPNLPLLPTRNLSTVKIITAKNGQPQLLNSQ
The assay can be described thus: BLI. In general terms: In BLI a coated tip is dipped into the sample, and binding shifts an interference pattern.

For assay [1], the target named is B8. As to the kind of experiment: BLI.
The next assay concerns the target T2, CCL23 (human, UniProt P55773 22-120).
T2 chain: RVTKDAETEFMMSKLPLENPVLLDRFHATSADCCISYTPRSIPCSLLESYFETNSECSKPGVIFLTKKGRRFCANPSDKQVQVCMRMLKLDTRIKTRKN
As to the kind of experiment: BLI.

The assay “CCL3L1” has as its target B9. As to the kind of experiment: BLI.
For the assay “CCL18”, the target named is B7. As to the kind of experiment: BLI.
For another assay, the target named is CCL7 (human, UniProt P80098 24-99). As to the kind of experiment: BLI.
Sequence of CCL7 (P80098 24-99): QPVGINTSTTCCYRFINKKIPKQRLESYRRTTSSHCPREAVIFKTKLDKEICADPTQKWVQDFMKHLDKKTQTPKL
The target of a further assay is CCL13 (human, UniProt Q99616 17-98). As to the kind of experiment: BLI.
Sequence of CCL13 (Q99616 17-98): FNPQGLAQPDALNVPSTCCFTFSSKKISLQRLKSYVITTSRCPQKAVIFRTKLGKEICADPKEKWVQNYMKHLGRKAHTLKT
A further assay has as its target CCL2 (human, UniProt P13500 24-99). The assay can be described thus: BLI.
The target in another assay is T3, CCL1 (human, UniProt P22362 24-96).
T3 chain: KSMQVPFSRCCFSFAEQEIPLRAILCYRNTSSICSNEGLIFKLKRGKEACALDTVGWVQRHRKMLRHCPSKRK
As to the kind of experiment: BLI.

For the assay “CCL3”, the target named is B6. The assay can be described thus: BLI.
For the assay “CCL14”, the target named is B2. As to the kind of experiment: BLI.
Another assay addresses T4, CCL15 (human, UniProt Q16663 22-113).
T4 chain: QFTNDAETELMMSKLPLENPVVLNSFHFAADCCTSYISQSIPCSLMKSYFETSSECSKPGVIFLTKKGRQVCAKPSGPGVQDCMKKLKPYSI
As to the kind of experiment: BLI.

The target in assay [2] is evasin 1 (EVA1_RHISA), C-terminally tagged (Rhipicephalus sanguineus, UniProt P0C8E7 21-114, K92N). The assay can be described thus: BLI.
For assay [3], the target named is P672(1_44)-EVA1(29_94) hybrid evasin (Rhipicephalus pulchellus | …, UniProt L7MC74;P0C8E7, K92N). As to the kind of experiment: BLI.
In assay [4] the target is other, more extended hybrid molecules (P672_EVA1 hybrids). The assay can be described thus: BLI; P672(1_66):EVA1(47_94).
Assay [5] has the same target. The assay can be described thus: BLI; P672(1_92):EVA1(74_94).

B1: N-terminally tagged P672 (P672_RHIPU), glycosylated (natural protein)
chain: VCEVSEQEGVGEDNATEDEDYEDFFKPVTCYFANSTVGPLRPPNCTVVCTNNTAWWNDTKSDGGHCYSEYRPEKRTHSREIYNCTIGVCGNGTCIANHTYADCW
modifications: N-glycosylated (six N-glycosylated residues identified by mass spectrometry, Asn-34 among them; marked in Figure 2A)
Broadly, the Kd is a measure of binding affinity in units of concentration. A high value points to weaker binding. In the case of B1, the Kd with CCL11 was 2.29 nM; with CCL16, 9.6 nM; in [1], 8.51 nM; with CCL23, 4.56 nM; in the assay with CCL3L1, 1.63 nM; with CCL18 it was 1.62 nM. The Kd with CCL7 was 18.6 nM; in the assay with CCL13, 7.6 nM; with CCL2, 21 nM; with CCL1, 11 nM; with CCL3 it was 0.954 nM; with CCL14 it was 5.5 nM. In the assay with CCL15, this molecule had a Kd of 31.5 nM.
In turn, B2 registered a Kd in assay [2] of 108 nM. In other words, the sub-micromolar range.

B3: C-terminally tagged P672 (P672_RHIPU), glycosylated (natural protein)
chain: ETGVCEVSEQEGVGEDNATEDEDYEDFFKPVTCYFANSTVGPLRPPNCTVVCTNNTAWWNDTKSDGGHCYSEYRPEKRTHSREIYNCTIGVCGNGTCIANHTYADCW
modifications: glycosylated
As to B3, the dissociation constant Kd in assay [1] stood at 16.4 nM; with CCL23, 9.7 nM; in the assay with CCL3L1, 5.7 nM; with CCL18 it was 0.9 nM; in the assay with CCL3 it was 13 nM.

B4: CCL4L1 (ligand)
chain: APMGSDPPTACCFSYTARKLPRNFVVDYYETSSLCSQPAVVFQTKRGKQVCADPSESWVQEYVYDLELN
Turning to B4, binding in assay [2] was put at a Kd of 77.9 nM.

B5: CCL4 (ligand)
chain: APMGSDPPTACCFSYTARKLPRNFVVDYYETSSLCSQPAVVFQTKRSKQVCADPSESWVQEYVYDLELN
B5 returned a dissociation constant (Kd) in assay [2] of 233 nM.
Still for that read-out and setting: the figure for B6 is 7.3 nM.
As to B7, the Kd in [3] was 6.45 nM; in assay [2], 2.02 nM; in assay [4], 3.69 nM; in assay [5], 9.75 nM.
With B8, the Kd was found to be 216 nM in assay [3], 277 nM in assay [4] and 397 nM in [5].
In turn, B9 showed a Kd in assay [2] of 22.4 nM.
